Experimental findings from US20180037651A1 (Janssen / Centocor, published 2018) are described below.

A value given as a limit tells only on which side of the number the result lay.

First the molecules themselves.
B1: GC5B494 (antibody, V domains shown)
VH: EVQLVQSGAEVKKPGESLKISCKGSGYSFTSYGIGWVRQMPGKGLEWMGIIYPGYSDTRYSPSFQGQVTISADKSISTAYLQWSSLKASDTAMYYCARVYSFGGRHKALFDYWGQGTLVTVSS
VL: EIVLTQSPATLSLSPGERATLSCRASQSVSSYLAWYQQKPGQAPRLLIYDASNRATGIPARFSGSGSGTDFTLTISSLEPEDFAVYYCQQRSNWPLTFGQGTKVEIK
notes: GC5B164 PTM variant; also called GC5H255
B2: GC5B498 (antibody, V domains shown)
VH: EVQLVQSGAEVKKPGESLKISCKGSGYSFTSYFIGWVRQMPGKGLEWMGIIYPGDSDTRYSPSFQGQVTISADKSISTAYLQWSSLKASDTAMYYCARVYSFGGRHKALFDYWGQGTLVTVSS
VL: EIVLTQSPATLSLSPGERATLSCRASQSVSSYLAWYQQKPGQAPRLLIYDASNRATGIPARFSGSGSGTDFTLTISSLEPEDFAVYYCQQRSNWPLTFGQGTKVEIK
notes: GC5B164 PTM variant; also called GC5H251
B3: GC5B496 (antibody, V domains shown)
VH: EVQLVQSGAEVKKPGESLKISCKGSGYSFTSYYIGWVRQMPGKGLEWMGIIYPGDSDTRYSPSFQGQVTISADKSISTAYLQWSSLKASDTAMYYCARVYSFGGRHKALFDYWGQGTLVTVSS
VL: EIVLTQSPATLSLSPGERATLSCRASQSVSSYLAWYQQKPGQAPRLLIYDASNRATGIPARFSGSGSGTDFTLTISSLEPEDFAVYYCQQRSNWPLTFGQGTKVEIK
notes: GC5B164 PTM variant; also called GC5H253
B4: GC5B502 (antibody, V domains shown)
VH: EVQLVQSGAEVKKPGESLKISCKGSGYSFTSYWIGWVRQMPGKGLEWMGIIYPGSSDTRYSPSFQGQVTISADKSISTAYLQWSSLKASDTAMYYCARVYSFGGRHKALFDYWGQGTLVTVSS
VL: EIVLTQSPATLSLSPGERATLSCRASQSVSSYLAWYQQKPGQAPRLLIYDASNRATGIPARFSGSGSGTDFTLTISSLEPEDFAVYYCQQRSNWPLTFGQGTKVEIK
notes: GC5B164 PTM variant; also called GC5H247
B5: GC5B503 (antibody, V domains shown)
VH: EVQLVQSGAEVKKPGESLKISCKGSGYSFTSYWIGWVRQMPGKGLEWMGIIYPGKSDTRYSPSFQGQVTISADKSISTAYLQWSSLKASDTAMYYCARVYSFGGRHKALFDYWGQGTLVTVSS
VL: EIVLTQSPATLSLSPGERATLSCRASQSVSSYLAWYQQKPGQAPRLLIYDASNRATGIPARFSGSGSGTDFTLTISSLEPEDFAVYYCQQRSNWPLTFGQGTKVEIK
notes: GC5B164 PTM variant; also called GC5H246
B6: GC5B497 (antibody, V domains shown)
VH: EVQLVQSGAEVKKPGESLKISCKGSGYSFTSYVIGWVRQMPGKGLEWMGIIYPGDSDTRYSPSFQGQVTISADKSISTAYLQWSSLKASDTAMYYCARVYSFGGRHKALFDYWGQGTLVTVSS
VL: EIVLTQSPATLSLSPGERATLSCRASQSVSSYLAWYQQKPGQAPRLLIYDASNRATGIPARFSGSGSGTDFTLTISSLEPEDFAVYYCQQRSNWPLTFGQGTKVEIK
notes: GC5B164 PTM variant; also called GC5H252
B7: GC5B495 (antibody, V domains shown)
VH: EVQLVQSGAEVKKPGESLKISCKGSGYSFTSYAIGWVRQMPGKGLEWMGIIYPGYSDTRYSPSFQGQVTISADKSISTAYLQWSSLKASDTAMYYCARVYSFGGRHKALFDYWGQGTLVTVSS
VL: EIVLTQSPATLSLSPGERATLSCRASQSVSSYLAWYQQKPGQAPRLLIYDASNRATGIPARFSGSGSGTDFTLTISSLEPEDFAVYYCQQRSNWPLTFGQGTKVEIK
notes: GC5B164 PTM variant; also called GC5H254
B8: GC5B501 (antibody, V domains shown)
VH: EVQLVQSGAEVKKPGESLKISCKGSGYSFTSYWIGWVRQMPGKGLEWMGIIYPGASDTRYSPSFQGQVTISADKSISTAYLQWSSLKASDTAMYYCARVYSFGGRHKALFDYWGQGTLVTVSS
VL: EIVLTQSPATLSLSPGERATLSCRASQSVSSYLAWYQQKPGQAPRLLIYDASNRATGIPARFSGSGSGTDFTLTISSLEPEDFAVYYCQQRSNWPLTFGQGTKVEIK
notes: GC5B164 PTM variant; also called GC5H248

This assay deals with T1, human GPRC5D (human, UniProt Q9NZD1 1-345).
T1 construct: on transfected HEK293/RBL cells or endogenous on myeloma cells (H929, MM1R, OPM2, LP1, JIM3, patient plasma cells); also called G protein-coupled receptor class C group 5 member D; hGPRC5D
T1 sequence (Q9NZD1 whole entry): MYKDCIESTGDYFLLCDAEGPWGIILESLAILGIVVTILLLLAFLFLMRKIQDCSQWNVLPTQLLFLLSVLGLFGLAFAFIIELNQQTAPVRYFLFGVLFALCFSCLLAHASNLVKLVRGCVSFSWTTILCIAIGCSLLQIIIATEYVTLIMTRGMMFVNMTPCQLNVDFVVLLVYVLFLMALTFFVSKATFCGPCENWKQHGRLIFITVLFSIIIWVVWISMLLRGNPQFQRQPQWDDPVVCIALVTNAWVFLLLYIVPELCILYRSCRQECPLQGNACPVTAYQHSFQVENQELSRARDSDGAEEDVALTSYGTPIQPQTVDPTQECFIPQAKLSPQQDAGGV
The assay is described as follows: FACS, human GPRC5D cells. (In flow cytometry, cells or beads pass a laser one at a time.)
The molecule B1 returned an MFI of 1000 to 10000 mfi. Then B2, with more than 10000 mfi; and B3, with more than 10000 mfi. In turn, B4 registered an MFI of more than 10000 mfi. B5: the MFI was more than 10000 mfi. Then B6, with more than 10000 mfi; and B7, with 1000 to 10000 mfi; and B8, with more than 10000 mfi.
